The record followed here is the domain aggregation screens of Martell et al. (2025).

This data set in a line: soluble fraction after stress (log2 fold change); higher = more stays soluble; pooled small domains, quantitative proteomics. To be noted: stress: pH 4. In outline: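 How much of each domain stays soluble after acid stress, expressed as a fold change, is used to gauge aggregation propensity. Pooled custom libraries of small domains underwent pH 4 stress before high-throughput quantitative proteomics. A higher log2 value means more of the domain stayed soluble.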
On to “HMNVNALIGQEGIVIKEINSGSNKIGQVKISGDTWSAVTTNDFTNAIPVGSNVKILKIDGVNLIVEPVY”, for which the “soluble fraction (log2)” value was 0.207.

With “HMNVNVSFTQLRHKAEHAIQAKNWSEARNLLTLATLMRPTHRNVARRLKAVEQRNRLFRRLLLILTHRKV”, the “soluble fraction (log2)” value is -0.229.

Consider “HMNVPFGFDEVNGKLVKNEEEQAIISEIKSLKNKGLSLRKIAEALNGRGIATKNGKAWTAVQIQRIA”, for which the “soluble fraction (log2)” value worked out at 0.22.

Regarding “HMNVPLYIMIESAVEQRLLDGTYQVGKMIPTEFELMDEFSVSRETVRKAINLLVQRGKLEKKRGIGTFVAS”, the “soluble fraction (log2)” value is -0.26. The figure for “HMNVSDIENKLNEMLSPLEKKVMVLYLEGKSYVEIGELLGRHTKSVDNALQRVKRKLEIYLKNRK” is 0.295; for “HMNVTIGESIKNVINHYGTPIYSYNPNNQEKYYEFHTNKGVLVVTAIGKKNTGYVTRVSMTY” it is -0.175. For “HMNVVDTGTDANYRVKISAVNLNMRLGPSTSYKSKGYITPGNYTIIKTSGDWGKVKETGYWVALKYTSKIN”, the “soluble fraction (log2)” value worked out at 0.175. Turning to “HMNVVINNELVSLMVEAMKDGVSSKSIQEEFEGYKISGKTITKKVLTAHVNKALEVFADMQE”, the “soluble fraction (log2)” value was -0.477. For the sequence “HMNYDPEEKITQIRTMLEIHSRIEFNEIITPATRRGEIIIIFLALLHMIKRGYIVVRQHRLFGDITIFARD”, the “soluble fraction (log2)” value is 0.22. To “HMNYKDQISRYFQQAFHIYPKYQTMKNEEGNFTSKIFKDDKMIIEGVGKSKKKAEQDVSRKALIHFNVL” belongs 0.398. The figure for “HMNYKNAIGQVGSVYVPIPPNREGLGQIEVKVQSRVSTVRAVSDHSERLENRVAVRVIELVDDRTLLVEKL” is -1.13; for “HMNYTSEDIKLASELFFHLLNNRILPANDVLASQYYDNNEIREILENMAEEGGLRIFGTRENLHLVSNGE” it is -1.21. To “HMNYYDLLGIPKSATKQQIRKAYRTKAKEFHPDVNGPFNSHMHFLLLKQAYETLMDANMRHVYDMALIS” belongs 0.215; to “HMPADHYEVLGIARDADAAEVKRAYRRLARESHPDANHGDSGAEVRFKAVSAAYEVLSDPERRARYDRFGH”, -0.257. With “HMPANVELLRTFTNKTGTKIKARIVAVSDNKVKLIRDDSKKFIVPIDSLSEEDQKYLKDWIANEVGEQ”, the “soluble fraction (log2)” value stood at 0.133. The figure for “HMPARTANEEAIRKYLLNHDSITRKETQALLKTGQSAAGRILKEMVENGWLARIGNGRSTGYELR” is 0.244; for “HMPATIEGIRLYLSSGLIKGVGEEMASRIVKAFGTDTIRVLDEEPERLLKVRGVGKKSLDRIRTSWAEH” it is -0.585. The figure for “HMPATPDATVQAVQQRLNELGYDVGSADGLMGRGTRSAIIAFQQDRGLAATGVADQALLLQLQP” is -0.0545. To “HMPAWKINQELQATVIATKANQTRLRIEGQTFETQTAIALKPGQSLLIKVVSLEPQISFALI” belongs 0.199; to “HMPDFLAELAARMERDAVTEAQIRQVVAQKGHYPEEVSPAQYHPDFFRQWLFPHWEKIVDVIRSSPEYTP”, -0.539; to “HMPDGTATATASVNVRSGASTLSPVLGVLRVGESIGVTGQANGGWVPVNYNGRAGYVYAAYLSFD”, -0.0669. As for “HMPDKIDSAAQGILDKLIRNDGFMAVTDKSPPEAIYKLFGVSKKVFKQAIGSLYKNRLITIEDAGLRIIPQ”, the “soluble fraction (log2)” value is -0.214. As for “HMPDLKIGKDHRLAEYIETKIAEDGYSPGAVLGEIKAKGLEFETEISKPTLYSYIDKGIFLTITNKELPV”, the “soluble fraction (log2)” value was determined as 0.0942. Take “HMPDLQKAIDDLLQVVDKRLNTSFESILNEVNSEKEAVAFFLALLEAVRWGFVKASQSDEGIKIEK”: the “soluble fraction (log2)” value was -0.387. The figure for “HMPDLSAEERNIVEALQKSNDLQVNLIAVKTGMDMGTLSATLFGLEMKGLVKLMAGGTYHLI” is 0.191; for “HMPDLSEDEEKIVSLLRDNNDLNVNIIVMRTQLPSATVTSSLFSLELKGVVRMYAGGMYHLM” it is 0.0385. With “HMPDLSYVDEVLNRYKGHKGTLITVLQQVQAHKGYLEKEALERVARSMGVPTARIYGVVTFYAQFR”, the “soluble fraction (log2)” value was found to be 0.099. The figure for “HMPDPVHAAYLRLAVLLTEQAIGPQVTEQQIRDRFALTRRQTSDLMGRLIREGIAEKRAGYGWNINTELTA” is -0.748; for “HMPDVAIMNVSVEPEKKVVRLQVKAISLEALLDFSTRLEAIPARVELQNHTPSKELSQKWAVNATLIVIY” it is -0.0366; for “HMPDYYAILEVERTADAKTIKAAYRKLALAYHPDRNPGDQAAEERFKQINEAYAVLSDPEKRARYDRYGSV” it is 0.139.

For “HMPEFKDMLKFFRMREHLSQSELAEKLGISASTVSMYEVGRRQPDFETEEKIADFFNTDLNTLRG”, the “soluble fraction (log2)” value is -0.169. Regarding “HMPEGTYLEKLAIENNNLQLIGLSREASQLVQLLQDAPQWRKVNLTGVLQADGAASGRDRFTMTAELQ”, the “soluble fraction (log2)” value was 0.187. To “HMPEKNQITHLIRLIDDRDEFVRKRVREQLIKLGEDAIPFLEMAAKTENLEIQRIASEIIQAIIPRQ” belongs -0.282. Regarding “HMPELPPHELLRALMVEHDIKQSELPEVGPQPVVSDVLAGKRALNLRQVAALAARFHVPMEVFT”, the “soluble fraction (log2)” value is -0.015.
